Substrate in data set [1]: CCc1c2c(nc3ccc(OC(=O)N4CCC(N)CC4)cc13)-c1cc3c(c(=O)n1C2)COC(=O)[C@]3(O)CC
Put plainly: purified protein. The conditions noted are these: 5-200 uM substrate, 50 mM HEPES pH 7.4, 37 °C, 10 h.

Substrate in data set [2]: CCCCCC(=O)Oc1ccc([N+](=O)[O-])cc1
Put plainly: purified protein. The class given is biochemical, Altericroceibacterium indicum. The conditions noted are these: Tris-HCl pH 7.5, 45 °C.

Substrate in data set [3]: CCCC(=O)Oc1ccc([N+](=O)[O-])cc1
Put plainly: purified protein. The conditions noted are these: Tris-HCl pH 7.5, 45 °C. The class given is biochemical, Altericroceibacterium indicum.

Substrate in data set [4]: CCc1c2c(nc3ccc(OC(=O)N4CCC(N)CC4)cc13)-c1cc3c(c(=O)n1C2)COC(=O)[C@]3(O)CC
Put plainly: HPLC of SN38 formation. The class given is biochemical, Altericroceibacterium indicum. The conditions noted are these: 5-200 uM substrate, 50 mM HEPES pH 7.4, 37 °C, 10 h. From the text:
(§1) HPLC of SN38 formation on E93 | the kinetic parameters for the conversion of CPT11 and NPC were obtained from the HPLC

Substrate in data set [5]: CCc1c2c(nc3ccc(OC(=O)N4CCC(N5CCCCC5)CC4)cc13)-c1cc3c(c(=O)n1C2)COC(=O)[C@]3(O)CC
The data set is described as follows: HPLC of SN38 formation. The conditions noted are these: pH 7.4; 37.0 °C. It counts as biochemical, Altericroceibacterium indicum.
Excerpt: as §1

B1: E93 (Altericroceibacterium indicum; E428A) (protein)
chain: MARTRYGPVIGKVEQGALAFKGIPYGAPTSGSGRFMPPTPPQPWSTPLRAFDYGPTAPQSDPQDALESGAADARESEDCLTLNVWTPSLNDQRKRPVMVWLHGGGLWRLSAAGDYQAGTHLAAHSDVVMVSPNHRLNVLAHAYLDEYDPAFAGSSSAGMLDLVLALKWVRDNIEEFGGDPDNVTIFGQSGGGQKVSFLMAMPAAAGLFHKAIIQSGPAPLALEKPYARELSARLLTLLDIPKNRVRDIQNVPLDAIMRAYYQIFEELGGFGVMGVIQDFAPVVDDVALPQHPFWNGASPLSRDVPLMIGCTRTEMTEYFLASNPGAAKRDFAAVTAQLEPVFGMQAPAVVAHYRATHPTASPWEVDALIRSDWPTRLFTQRIADEQVKLGGAPVWMYRMDWQTTARDGLLMSPHAIDIPFVLDTVGTAPVEPGQLAEQQRMMQQMNNAWVSFARNGNPQNKYIPPWQPYNSTSRPTMIFNLHSHMANDPDGSDLAFLKKDLANLEVVAGGVTH
In general, Km refers to the concentration of substrate that gives half-maximal velocity. In the case of B1, in “purified protein [1]”, the Km worked out at 85.07 ± 9.4 µM and the kcat is recorded as 23.80 ± 2.34 ×10^-3 min^-1.

B2: E93 (Altericroceibacterium indicum; M273A) (protein)
chain: MARTRYGPVIGKVEQGALAFKGIPYGAPTSGSGRFMPPTPPQPWSTPLRAFDYGPTAPQSDPQDALESGAADARESEDCLTLNVWTPSLNDQRKRPVMVWLHGGGLWRLSAAGDYQAGTHLAAHSDVVMVSPNHRLNVLAHAYLDEYDPAFAGSSSAGMLDLVLALKWVRDNIEEFGGDPDNVTIFGQSGGGQKVSFLMAMPAAAGLFHKAIIQSGPAPLALEKPYARELSARLLTLLDIPKNRVRDIQNVPLDAIMRAYYQIFEELGGFGVAGVIQDFAPVVDDVALPQHPFWNGASPLSRDVPLMIGCTRTEMTEYFLASNPGAAKRDFAAVTAQLEPVFGMQAPAVVAHYRATHPTASPWEVDALIRSDWPTRLFTQRIADEQVKLGGAPVWMYRMDWQTTARDGLLMSPHAIDIPFVLDTVGTEPVEPGQLAEQQRMMQQMNNAWVSFARNGNPQNKYIPPWQPYNSTSRPTMIFNLHSHMANDPDGSDLAFLKKDLANLEVVAGGVTH
notes: recombinant in E. coli BL21 (DE3), N-terminal His6-SUMO tag (pSMT3), Ni-NTA purified; 57 kDa; 510 residues modelled; catalytic triad S189, E314, H414
As to B2, in “purified protein [2]”, the Km was found to be 390 ± 25 µM.

B3: E93 (Altericroceibacterium indicum; T375I) (protein)
chain: MARTRYGPVIGKVEQGALAFKGIPYGAPTSGSGRFMPPTPPQPWSTPLRAFDYGPTAPQSDPQDALESGAADARESEDCLTLNVWTPSLNDQRKRPVMVWLHGGGLWRLSAAGDYQAGTHLAAHSDVVMVSPNHRLNVLAHAYLDEYDPAFAGSSSAGMLDLVLALKWVRDNIEEFGGDPDNVTIFGQSGGGQKVSFLMAMPAAAGLFHKAIIQSGPAPLALEKPYARELSARLLTLLDIPKNRVRDIQNVPLDAIMRAYYQIFEELGGFGVMGVIQDFAPVVDDVALPQHPFWNGASPLSRDVPLMIGCTRTEMTEYFLASNPGAAKRDFAAVTAQLEPVFGMQAPAVVAHYRATHPTASPWEVDALIRSDWPIRLFTQRIADEQVKLGGAPVWMYRMDWQTTARDGLLMSPHAIDIPFVLDTVGTEPVEPGQLAEQQRMMQQMNNAWVSFARNGNPQNKYIPPWQPYNSTSRPTMIFNLHSHMANDPDGSDLAFLKKDLANLEVVAGGVTH
notes: as for B2
In the case of B3, the results for the Km in the data set “purified protein [2]” and in the data set “purified protein [3]” were 110 ± 10 µM and 100 ± 10 µM, respectively.

B4: E93 (Altericroceibacterium indicum; Q193A) (protein)
chain: MARTRYGPVIGKVEQGALAFKGIPYGAPTSGSGRFMPPTPPQPWSTPLRAFDYGPTAPQSDPQDALESGAADARESEDCLTLNVWTPSLNDQRKRPVMVWLHGGGLWRLSAAGDYQAGTHLAAHSDVVMVSPNHRLNVLAHAYLDEYDPAFAGSSSAGMLDLVLALKWVRDNIEEFGGDPDNVTIFGQSGGGAKVSFLMAMPAAAGLFHKAIIQSGPAPLALEKPYARELSARLLTLLDIPKNRVRDIQNVPLDAIMRAYYQIFEELGGFGVMGVIQDFAPVVDDVALPQHPFWNGASPLSRDVPLMIGCTRTEMTEYFLASNPGAAKRDFAAVTAQLEPVFGMQAPAVVAHYRATHPTASPWEVDALIRSDWPTRLFTQRIADEQVKLGGAPVWMYRMDWQTTARDGLLMSPHAIDIPFVLDTVGTEPVEPGQLAEQQRMMQQMNNAWVSFARNGNPQNKYIPPWQPYNSTSRPTMIFNLHSHMANDPDGSDLAFLKKDLANLEVVAGGVTH
notes: as for B2
With B4, the Km in the data set “purified protein [2]” was found to be 100 ± 10 µM.

B5: E93 (Altericroceibacterium indicum; W107A) (protein)
chain: MARTRYGPVIGKVEQGALAFKGIPYGAPTSGSGRFMPPTPPQPWSTPLRAFDYGPTAPQSDPQDALESGAADARESEDCLTLNVWTPSLNDQRKRPVMVWLHGGGLARLSAAGDYQAGTHLAAHSDVVMVSPNHRLNVLAHAYLDEYDPAFAGSSSAGMLDLVLALKWVRDNIEEFGGDPDNVTIFGQSGGGQKVSFLMAMPAAAGLFHKAIIQSGPAPLALEKPYARELSARLLTLLDIPKNRVRDIQNVPLDAIMRAYYQIFEELGGFGVMGVIQDFAPVVDDVALPQHPFWNGASPLSRDVPLMIGCTRTEMTEYFLASNPGAAKRDFAAVTAQLEPVFGMQAPAVVAHYRATHPTASPWEVDALIRSDWPTRLFTQRIADEQVKLGGAPVWMYRMDWQTTARDGLLMSPHAIDIPFVLDTVGTEPVEPGQLAEQQRMMQQMNNAWVSFARNGNPQNKYIPPWQPYNSTSRPTMIFNLHSHMANDPDGSDLAFLKKDLANLEVVAGGVTH
notes: as for B2
As for B5, the Km in “purified protein [2]” was 210 ± 18 µM.

B6: E93 (Altericroceibacterium indicum; Y318A) (protein)
chain: MARTRYGPVIGKVEQGALAFKGIPYGAPTSGSGRFMPPTPPQPWSTPLRAFDYGPTAPQSDPQDALESGAADARESEDCLTLNVWTPSLNDQRKRPVMVWLHGGGLWRLSAAGDYQAGTHLAAHSDVVMVSPNHRLNVLAHAYLDEYDPAFAGSSSAGMLDLVLALKWVRDNIEEFGGDPDNVTIFGQSGGGQKVSFLMAMPAAAGLFHKAIIQSGPAPLALEKPYARELSARLLTLLDIPKNRVRDIQNVPLDAIMRAYYQIFEELGGFGVMGVIQDFAPVVDDVALPQHPFWNGASPLSRDVPLMIGCTRTEMTEAFLASNPGAAKRDFAAVTAQLEPVFGMQAPAVVAHYRATHPTASPWEVDALIRSDWPTRLFTQRIADEQVKLGGAPVWMYRMDWQTTARDGLLMSPHAIDIPFVLDTVGTEPVEPGQLAEQQRMMQQMNNAWVSFARNGNPQNKYIPPWQPYNSTSRPTMIFNLHSHMANDPDGSDLAFLKKDLANLEVVAGGVTH
As for B6, in the data set “purified protein [1]”, the Km worked out at 55.47 ± 5.17 µM and the kcat was 40.87 ± 3.07 ×10^-3 min^-1.

B7: E93 (Altericroceibacterium indicum) (protein)
chain: MARTRYGPVIGKVEQGALAFKGIPYGAPTSGSGRFMPPTPPQPWSTPLRAFDYGPTAPQSDPQDALESGAADARESEDCLTLNVWTPSLNDQRKRPVMVWLHGGGLWRLSAAGDYQAGTHLAAHSDVVMVSPNHRLNVLAHAYLDEYDPAFAGSSSAGMLDLVLALKWVRDNIEEFGGDPDNVTIFGQSGGGQKVSFLMAMPAAAGLFHKAIIQSGPAPLALEKPYARELSARLLTLLDIPKNRVRDIQNVPLDAIMRAYYQIFEELGGFGVMGVIQDFAPVVDDVALPQHPFWNGASPLSRDVPLMIGCTRTEMTEYFLASNPGAAKRDFAAVTAQLEPVFGMQAPAVVAHYRATHPTASPWEVDALIRSDWPTRLFTQRIADEQVKLGGAPVWMYRMDWQTTARDGLLMSPHAIDIPFVLDTVGTEPVEPGQLAEQQRMMQQMNNAWVSFARNGNPQNKYIPPWQPYNSTSRPTMIFNLHSHMANDPDGSDLAFLKKDLANLEVVAGGVTH
notes: as for B2
B7: the Km in “purified protein [2]” came out at 180 ± 11 µM; in the data set “purified protein [3]” (0.02-3.50 mM substrate) it was 210 ± 20 µM; in “HPLC of SN38 formation [4]”, 75.66 ± 6.03 µM; in “HPLC of SN38 formation [5]” it was 70.17 ± 7.07 µM. For the same protein, in “HPLC of SN38 formation [4]”, the kcat is 35.40 ± 1.70 ×10^-3 min^-1.

B8: E93 (Altericroceibacterium indicum; T375A) (protein)
chain: MARTRYGPVIGKVEQGALAFKGIPYGAPTSGSGRFMPPTPPQPWSTPLRAFDYGPTAPQSDPQDALESGAADARESEDCLTLNVWTPSLNDQRKRPVMVWLHGGGLWRLSAAGDYQAGTHLAAHSDVVMVSPNHRLNVLAHAYLDEYDPAFAGSSSAGMLDLVLALKWVRDNIEEFGGDPDNVTIFGQSGGGQKVSFLMAMPAAAGLFHKAIIQSGPAPLALEKPYARELSARLLTLLDIPKNRVRDIQNVPLDAIMRAYYQIFEELGGFGVMGVIQDFAPVVDDVALPQHPFWNGASPLSRDVPLMIGCTRTEMTEYFLASNPGAAKRDFAAVTAQLEPVFGMQAPAVVAHYRATHPTASPWEVDALIRSDWPARLFTQRIADEQVKLGGAPVWMYRMDWQTTARDGLLMSPHAIDIPFVLDTVGTEPVEPGQLAEQQRMMQQMNNAWVSFARNGNPQNKYIPPWQPYNSTSRPTMIFNLHSHMANDPDGSDLAFLKKDLANLEVVAGGVTH
notes: as for B2
As for B8, in the data set “purified protein [2]”, the Km came to 130 ± 10 µM.

Values taken from paper PMC9901791, “Structural insights into catalytical capability for CPT11 hydrolysis and substrate specificity of a novel marine microbial carboxylesterase, E93” (Frontiers in Microbiology, 2023).
